Numbering of substitutions follows the chain as printed. One block for each binder: values may come before it.
Columns and labels:
[1] = target: T1, human CTLA-4 expressed on the cell surface (human, UniProt P16410 36-223); assay: flow cytometry, 10 µg/mL mAb, geometric MFI
T1 construct: CHO cells stably expressing human CTLA-4; also called hCTLA-4; CTLA-4+ CHO cells
Method: (§1) Table 23. In vitro characterization of scFvs reformatted as full-length antibodies. kon, koff, and KD of the indicated CTLA-4 mAbs for soluble human CTLA-4 was determined by SPR (Carterra). Geometric MFI of the indicated CTLA-4 mAbs bound to CTLA-4⁺ or CD27⁺ CHO cells as detected by a secondary human IgG antibody and flow cytometry. Affinity (KD) of the indicated CTLA-4 mAbs for soluble cynomolgus CTLA-4 was determined by a single antigen concentration BLI measurement (Octet). […] Due to constraints on sample size in each Promega bioassay kit, this set of aCTLA-4 mAbs was analyzed using multiple plates (plate letters correspond to Plate A-D in FIG. 20D).
(§2) To determine if the CTLA-4 mAbs bound the appropriate antigen expressed on the surface of mammalian cells, CHO cell lines stably expressing human CTLA-4 or an irrelevant antigen (CD27) were generated. Cells (0.5×10⁶ each cell line) were combined and washed with MACS buffer (Dulbecco's Phosphate Buffered Saline [DPBS], with 0.5% bovine serum albumin [BSA], and 2 mM ethylenediaminetetraacetic acid [EDTA]). The cells were incubated with 10 μg/mL anti-CTLA-4 for 30 min at 4° C., then excess, unbound mAbs were removed by washing twice with MACS buffer. The cells were then stained with PE-conjugated anti-Human IgG Fc antibody (clone M1310G05, BioLegend 410720, San Diego, Calif., USA) to detect bound anti-CTLA-4 and with fluorescein isothiocyanate (FITC)-conjugated anti-CD27 (clone 0323, BioLegend 302806, San Diego, Calif., USA) to distinguish the cells expressing the irrelevant antigen. Cells were washed twice with MACS buffer, fixed with 4% paraformaldehyde fixation buffer (BioLegend 420801, San Diego, Calif., USA) for 20 minutes at room temperature and washed twice more with MACS buffer.

[2] = target: T2, CD27 on CHO cells (UniProt P26842 20-260, limits assumed); assay: flow cytometry, 10 µg/mL mAb, geometric MFI
T2 construct: whole, on cells; also called CD27+ CHO cells; irrelevant antigen (CD27)
T2 sequence (P26842 20-260 limits assumed): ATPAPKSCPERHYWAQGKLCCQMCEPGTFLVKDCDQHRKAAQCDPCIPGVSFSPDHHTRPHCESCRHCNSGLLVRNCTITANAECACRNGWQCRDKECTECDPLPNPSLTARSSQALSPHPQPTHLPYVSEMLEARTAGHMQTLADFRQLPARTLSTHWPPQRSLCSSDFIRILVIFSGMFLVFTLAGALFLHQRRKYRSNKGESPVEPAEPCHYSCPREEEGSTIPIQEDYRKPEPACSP
Method: as §1, §2

[3] = target: T2, CD27 on CHO cells; assay: flow cytometry, mixed CTLA-4+ and CD27+ CHO cells
Method: To determine if the CTLA-4 mAbs bound the appropriate antigen expressed on the surface of mammalian cells, CHO cell lines stably expressing human CTLA-4 or an irrelevant antigen (CD27) were generated. Cells (0.5×10⁶ each cell line) were combined and washed with MACS buffer (Dulbecco's Phosphate Buffered Saline [DPBS], with 0.5% bovine serum albumin [BSA], and 2 mM ethylenediaminetetraacetic acid [EDTA]). The cells were incubated with 10 μg/mL anti-CTLA-4 for 30 min at 4° C., then excess, unbound mAbs were removed by washing twice with MACS buffer. The cells were then stained with PE-conjugated anti-Human IgG Fc antibody (clone M1310G05, BioLegend 410720, San Diego, Calif., USA) to detect bound anti-CTLA-4 and with fluorescein isothiocyanate (FITC)-conjugated anti-CD27 (clone 0323, BioLegend 302806, San Diego, Calif., USA) to distinguish the cells expressing the irrelevant antigen. Cells were washed twice with MACS buffer, fixed with 4% paraformaldehyde fixation buffer (BioLegend 420801, San Diego, Calif., USA) for 20 minutes at room temperature and washed twice more with MACS buffer. […] Binding of mAbs to CTLA-4 on the cell surface was determined using LSR II (BD Biosciences, San Jose, Calif., USA) or CytoFLEX LX (Beckman Coulter, Brea. Calif., USA) flow cytometers and analyzed using FlowJo (v10.6.1, BD Biosciences, San Jose, Calif., USA).

[4] = target: T3, His-tagged cynomolgus CTLA-4 (CT4-C5227; Acro Biosystems) (cynomolgus, UniProt G7PL88 36-161); assay: BLI (Octet)
T3 construct: also called soluble cynomolgus CTLA-4; cyno CTLA-4
T3 sequence (G7PL88 entry or part of it limits assumed, form in doubt): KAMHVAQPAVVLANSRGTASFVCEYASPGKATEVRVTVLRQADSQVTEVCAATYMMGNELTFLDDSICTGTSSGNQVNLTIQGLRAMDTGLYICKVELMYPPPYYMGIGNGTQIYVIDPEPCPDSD
Method: (§3) The binding specificity and affinity of each full-length antibody towards CTLA-4 were determined using biolayer interferometry (BLI) and/or surface plasmon resonance (SPR). Anti-cyno CTLA-4 and anti-mouse CTLA-4 affinities were tested using ForteBio (BLI). Anti-human CTLA-4 affinities were measured using Carterra (SPR).
(§4) For BLI, antibodies were loaded onto an Anti-Human IgG Fc (AHC) biosensor using the Octet Red96 system (ForteBio). Loaded biosensors were dipped into antigen dilutions beginning at 300 nM, with 6 serial dilutions at 1:3. Kinetic analysis was performed using a 1:1 binding model and global fitting.

[5] = target: mouse CTLA-4 (mouse, UniProt P09793 36-161, limits assumed); assay: BLI (Octet)
mouse CTLA-4, sequence (P09793 36-161 limits assumed): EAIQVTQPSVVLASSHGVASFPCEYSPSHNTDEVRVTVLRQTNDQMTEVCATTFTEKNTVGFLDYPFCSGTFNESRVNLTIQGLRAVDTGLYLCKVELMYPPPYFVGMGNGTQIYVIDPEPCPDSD
Method: as §3, §4

[6] = target: T4, His-tagged human CTLA-4 (CT4-H5229; Acro Biosystems) (human, UniProt P16410 36-161); assay: SPR (Carterra)
T4 construct: bought soluble protein; also called soluble human CTLA-4; recombinant human CTLA-4; not shown: His tag
T4 sequence (P16410 36-161 limits assumed): as the sequence (G7PL88 entry or part of it limits assumed, form in doubt) above, with N14S, T18I, M106L counted along it
Method: (§5) Then, goat anti-Human IgG Fc (Southern Biotech 2047-01) was coupled for 10 minutes at […] in 10 mM Sodim Acetate pH 4.5 (Carterra Inc.). The surface was then deactivated with 1 M ethanolamine pH 8.5 (Carterra Inc.). Running buffer used for the lawn immobilization was HBS-EPC (10 mM HEPES, 150 mM NaCl, 3 mM EDTA, 0.05% Tween 20, pH 7.4; Teknova).
(§6) The sensor chip was then transferred to a continuous flow microspotter (CFM; Carterra Inc.) for array capturing. The mAb supernatants were diluted 50-fold ([…] final concentration) into HBS-EPC with 1 mg/mL BSA. The samples were each captured twice with 15-minute and 4-minute capture steps on the first and second prints, respectively, to create multiple densities, using a […] flow rate. The running buffer in the CFM was also HBS-EPC.
(§7) Next, the sensor chip was loaded onto an SPR reader (MX-96 system; Ibis Technologies) for the kinetic analysis. CTLA-4 was injected at five increasing concentrations in a four-fold dilution series with concentrations of 1.95, 7.8, 31.25, 125, and 500 nM in running buffer (HBS-EPC with 1.0 mg/mL BSA). CTLA-4 injections were 5 minutes with a 15-minute dissociation at […] in a non-regenerative kinetic series. An injection of the goat anti-Human IgG Fc capture antibody at […] was injected at the end of the series to verify the capture level of each mAb. Binding data was double referenced by subtracting an interspot surface and a blank injection and analyzed for ka (on-rate), kd (off-rate), and KD (affinity) using the Kinetic Interaction Tool software (Carterra Inc.).

[7] = target: T4, His-tagged human CTLA-4 (CT4-H5229; …); assay: SPR (Carterra); remark: listed apart in the source
Method: as §5, §6, §7

[8] = target: T3, His-tagged cynomolgus CTLA-4 …; assay: BLI (Octet), single antigen concentration
Method: as §1
Antibodies were loaded at 5 μg/mL onto Protein A biosensors that were dipped into 80 nM antigen, and kinetic constants were calculated using a monovalent model.

[9] = target: T4, His-tagged human CTLA-4 (CT4-H5229; …); assay: SPR (Carterra), soluble human CTLA-4
[10] = target: T1, human CTLA-4 expressed on the cell …; assay: cell-based or functional assay
[11] = target: T1, human CTLA-4 expressed on the cell …; assay: cell-based or functional assay; remark: listed apart in the source
[12] = target: T5, rcmCTLA-4-Fc from Sino Biological (90213-C02H) (cynomolgus monkey); assay: ELISA, against R&D rhCTLA-4 Fc on the same plate
T5 construct: also called Sino Biological rcmCTLA-4 Fc
Method: (§8) Recombinant human CTLA-4-Fc (rhCTLA-4) from R&D Systems (7268-CT-100, FIGS. 36A-36C) was coated at 1 ug/mL, on the other half of each of the plates. […] RhCTLA-4-Fc (ACROBiosystems, CT4-H5229, FIGS. 36D-E) was coated at 1 ug/mL, on the other half of each of these plates. After coating, the plates were incubated overnight at 4° C.
(§9) The following day, the plates were blocked with 5% milk in PBST for 1 hour on a plate shaker at room temperature. […] Excess, unbound mAbs were removed by washing with PBST. Bound mAbs were then detected with an HRP-conjugated anti-kappa light chain antibody (0.5 ug/ml, Southern Biotech 2060-50). After incubation on a plate shaker for 1 hour at room temperature and washing, the plates were developed with TMB substrate. After sufficient signal was achieved, 1 N hydrochloric acid was added to stop development. Absorbance at 450 nm was read using a Spectramax i3x plate reader (Molecular Devices). EC50 values were calculated by plotting absorbance vs. the log of concentration using Prism (GraphPad).

[13] = target: T6, rcmCTLA-4-Fc from ACROBiosystems (CT4-C5256) (cynomolgus monkey); assay: ELISA, against R&D rhCTLA-4 Fc on the same plate
T6 construct: also called ACROBiosystems rcmCTLA-4 Fc; ACROBiosystems cCTLA-4 Fc
Method: as §8, §9

T1 sequence (P16410 36-223 limits assumed): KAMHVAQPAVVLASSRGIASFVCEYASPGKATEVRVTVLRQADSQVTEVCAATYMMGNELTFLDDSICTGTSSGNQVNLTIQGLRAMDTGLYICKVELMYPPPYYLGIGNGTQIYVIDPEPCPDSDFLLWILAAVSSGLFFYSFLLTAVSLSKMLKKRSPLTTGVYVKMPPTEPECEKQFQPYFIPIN

MFI of CTLA-4+ CHO cells [1]: 1330
MFI of CD27+ CHO cells [2]: 18.5
binding result [3]: no binding (tested: 10 µg/mL)
Kd [4]: 0.96 nM
Kd [5]: 51 nM
Kd [6]: 0.77 nM
Kd [7]: 0.77 nM
koff [7]: 0.00016 s⁻¹
kon [7]: 210000 M⁻¹ s⁻¹
Kd [8]: 1 nM
Kd [9]: 0.77 nM
koff [9]: 0.00016 s⁻¹
kon [9]: 210000 M⁻¹ s⁻¹
Promega assay % inhibition [10]: 43.2%
Promega assay antagonist (EC50, ug/mL) [10]: 0.13 µg/mL
Cell-based blocking activity EC50 [11]: 0.13 µg/mL
Cell-based blocking activity max signal (RLU) [11]: 237 RLU
B1: antibody A1 (L1H1) (antibody, V domains shown)
VH: QVQLVESGGGVVQPGRSLRLSCAASGFTFSSFGMHWVRQAPGKGLEWVAVIWYDGRNKYYVDSVKGRFTISRDNSNNTLYLQMNSLRAEDTAVYYCARGEFFGEFFDYWGQGTLVTVSS
VL: EIVLTQSPGTLSLSPGEGATLSCRASQSFSSNYLAWYQQKPGQAPRLLIYGASSRATGIPDRFSGSGSGTDFTLTISRLEPEDFAVYYCQQYGTSPFTFGPGTKVDIK
notes: also called aCTLA-4.9; CTLA4.A1

Fold Change (EC50 of cyno divided by EC50 of human) [12]: 1.6
Fold Change (EC50 of cyno divided by EC50 of human) [13]: 1.3
B2: Ipilimumab (antibody, V domains shown)
VH: QVQLVESGGGVVQPGRSLRLSCAASGFTFSSYTMHWVRQAPGKGLEWVTFISYDGNNKYYADSVKGRFTISRDNSKNTLYLQMNSLRAEDTAIYYCARTGWLGPFDYWGQGTLVTVSSA
VL: not shown
notes: also called commercial ipilimumab; Yervoy

MFI of CTLA-4+ CHO cells [1]: 934
MFI of CD27+ CHO cells [2]: 26
binding result [3]: no binding (tested: 10 µg/mL)
Kd [4]: 0.92 nM
binding result [5]: no binding (tested: 300 nM)
Kd [6]: 6.8 nM
Kd [7]: 6.8 nM
koff [7]: 0.00043 s⁻¹
kon [7]: 63000 M⁻¹ s⁻¹
Kd [8]: 0.9 nM
Kd [9]: 6.8 nM
koff [9]: 0.00043 s⁻¹
kon [9]: 63000 M⁻¹ s⁻¹
Promega assay % inhibition [10]: 60.8%
Promega assay antagonist (EC50, ug/mL) [10]: 0.19 µg/mL
Cell-based blocking activity EC50 [11]: 0.19 µg/mL
Cell-based blocking activity max signal (RLU) [11]: 333 RLU
B3: antibody A9 (L9H9) (antibody, V domains shown)
VH: QVQLVESGGGVVQPGRSLRLSCAASGFTFSSHGMHWVRQAPGKGLEWVAVIWYDGSNKHYADSVKGRFTISRDNSKNTLYLQMNSLRAEDTAVYYCARGDILTGYYGYWGQGTLVTVSS
VL: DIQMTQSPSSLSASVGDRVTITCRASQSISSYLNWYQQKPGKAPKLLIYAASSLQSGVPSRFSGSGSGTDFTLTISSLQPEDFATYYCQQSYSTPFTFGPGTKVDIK
notes: also called aCTLA-4.24

MFI of CTLA-4+ CHO cells [1]: 1050
MFI of CD27+ CHO cells [2]: 18.2
binding result [3]: no binding (tested: 10 µg/mL)
Kd [4]: 1.2 nM
binding result [5]: no binding (tested: 300 nM)
Kd [6]: 1.5 nM
Kd [7]: 1.5 nM
koff [7]: 0.00028 s⁻¹
kon [7]: 190000 M⁻¹ s⁻¹
Kd [8]: 1.2 nM
Kd [9]: 1.5 nM
koff [9]: 0.00028 s⁻¹
kon [9]: 190000 M⁻¹ s⁻¹
Promega assay % inhibition [10]: 49.8%
Promega assay antagonist (EC50, ug/mL) [10]: 0.18 µg/mL
Cell-based blocking activity EC50 [11]: 0.18 µg/mL
Cell-based blocking activity max signal (RLU) [11]: 273 RLU
B4: antibody A3 (L3H3) (antibody, V domains shown)
VH: B3 VH with A23I, H32Y, I51N, D100G, I101V, L102W, T103G, G104P, Y106F, G107D
VL: not shown
notes: also called aCTLA-4.2

— patent US20230265192A1 (GIGAGEN, published 2023)
